Data reported in patent publication US20180155451A1 (published 2018).

Biological target: T1, FcγRIa extracellular domain with C-terminal His tag (human, UniProt P12314 16-292)
T1 construct: extracellular domain; Expressed in FreeStyle293 cells; used as analyte in Biacore; also called FcgRI; 1a; not shown: His tag at the C terminus
Experiment: SPR (Biacore), captured antibody, FcγRIa analyte; relative to GpH7-A5/GpH7-B3/GpL16-k0 = 100

T1 sequence (P12314 16-292): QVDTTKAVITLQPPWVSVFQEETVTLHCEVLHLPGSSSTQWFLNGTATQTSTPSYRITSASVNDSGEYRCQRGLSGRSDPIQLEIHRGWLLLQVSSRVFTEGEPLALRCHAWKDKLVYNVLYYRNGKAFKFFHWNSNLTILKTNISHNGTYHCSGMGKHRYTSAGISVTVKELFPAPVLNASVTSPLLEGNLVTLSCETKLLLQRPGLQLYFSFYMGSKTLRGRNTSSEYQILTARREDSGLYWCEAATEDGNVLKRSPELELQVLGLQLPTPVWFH

Row | He/Con_1a | Binder
1 | 107 % of control | GpH7-A5/GpH7-B3 variant (I336_08L)/GpL16-k0 (antibody, human IgG1, kappa, Heterodimerized; only the B3 chain altered; also called He Ab I336_08L) heavy 1: not shown heavy 2: not shown light: DIVMTQSPLSLPVTPGEPASISCQASESLVHSNRNTYLHWYLQKPGQSPQLLIYKVSNRFSGVPDRFSGSGSGTDFTLKISRVEAEDVGVYYCSQNTHVPPTFGQGTKVEIERTVAAPSVFIFPPSDEQLKSGTASVVCLLNNFYPREAKVQWKVDNALQSGNSQESVTEQDSKDSTYSLSSTLTLSKADYEKHKVYACEVTHQGLSSPVTKSFNRGEC
2 | 106 % of control | GpH7-A5/GpH7-B3 variant (S337_10E)/GpL16-k0 (antibody, human IgG1, kappa, Heterodimerized; only the B3 chain altered; also called He Ab S337_10E) heavy 1: not shown heavy 2: not shown light: DIVMTQSPLSLPVTPGEPASISCQASESLVHSNRNTYLHWYLQKPGQSPQLLIYKVSNRFSGVPDRFSGSGSGTDFTLKISRVEAEDVGVYYCSQNTHVPPTFGQGTKVEIERTVAAPSVFIFPPSDEQLKSGTASVVCLLNNFYPREAKVQWKVDNALQSGNSQESVTEQDSKDSTYSLSSTLTLSKADYEKHKVYACEVTHQGLSSPVTKSFNRGEC
3 | 105 % of control | GpH7-A5/GpH7-B3 variant (S337_08L)/GpL16-k0 (antibody, human IgG1, kappa, Heterodimerized; only the B3 chain altered; also called He Ab S337_08L) heavy 1: not shown heavy 2: not shown light: DIVMTQSPLSLPVTPGEPASISCQASESLVHSNRNTYLHWYLQKPGQSPQLLIYKVSNRFSGVPDRFSGSGSGTDFTLKISRVEAEDVGVYYCSQNTHVPPTFGQGTKVEIERTVAAPSVFIFPPSDEQLKSGTASVVCLLNNFYPREAKVQWKVDNALQSGNSQESVTEQDSKDSTYSLSSTLTLSKADYEKHKVYACEVTHQGLSSPVTKSFNRGEC
4 | 105 % of control | GpH7-A5/GpH7-B3 variant (S337_19Q)/GpL16-k0 (antibody, human IgG1, kappa, Heterodimerized; only the B3 chain altered; also called He Ab S337_19Q) heavy 1: not shown heavy 2: not shown light: DIVMTQSPLSLPVTPGEPASISCQASESLVHSNRNTYLHWYLQKPGQSPQLLIYKVSNRFSGVPDRFSGSGSGTDFTLKISRVEAEDVGVYYCSQNTHVPPTFGQGTKVEIERTVAAPSVFIFPPSDEQLKSGTASVVCLLNNFYPREAKVQWKVDNALQSGNSQESVTEQDSKDSTYSLSSTLTLSKADYEKHKVYACEVTHQGLSSPVTKSFNRGEC
5 | 105 % of control | GpH7-A5/GpH7-B3 variant (I336_11K)/GpL16-k0 (antibody, human IgG1, kappa, Heterodimerized; only the B3 chain altered; also called He Ab I336_11K) heavy 1: not shown heavy 2: not shown light: DIVMTQSPLSLPVTPGEPASISCQASESLVHSNRNTYLHWYLQKPGQSPQLLIYKVSNRFSGVPDRFSGSGSGTDFTLKISRVEAEDVGVYYCSQNTHVPPTFGQGTKVEIERTVAAPSVFIFPPSDEQLKSGTASVVCLLNNFYPREAKVQWKVDNALQSGNSQESVTEQDSKDSTYSLSSTLTLSKADYEKHKVYACEVTHQGLSSPVTKSFNRGEC
6 | 106 % of control | GpH7-A5/GpH7-B3 variant (S337_09D)/GpL16-k0 (antibody, human IgG1, kappa, Heterodimerized; only the B3 chain altered; also called He Ab S337_09D) heavy 1: not shown heavy 2: not shown light: DIVMTQSPLSLPVTPGEPASISCQASESLVHSNRNTYLHWYLQKPGQSPQLLIYKVSNRFSGVPDRFSGSGSGTDFTLKISRVEAEDVGVYYCSQNTHVPPTFGQGTKVEIERTVAAPSVFIFPPSDEQLKSGTASVVCLLNNFYPREAKVQWKVDNALQSGNSQESVTEQDSKDSTYSLSSTLTLSKADYEKHKVYACEVTHQGLSSPVTKSFNRGEC
7 | 104 % of control | GpH7-A5/GpH7-B3 variant (I336_09D)/GpL16-k0 (antibody, human IgG1, kappa, Heterodimerized; only the B3 chain altered; also called He Ab I336_09D) heavy 1: not shown heavy 2: not shown light: DIVMTQSPLSLPVTPGEPASISCQASESLVHSNRNTYLHWYLQKPGQSPQLLIYKVSNRFSGVPDRFSGSGSGTDFTLKISRVEAEDVGVYYCSQNTHVPPTFGQGTKVEIERTVAAPSVFIFPPSDEQLKSGTASVVCLLNNFYPREAKVQWKVDNALQSGNSQESVTEQDSKDSTYSLSSTLTLSKADYEKHKVYACEVTHQGLSSPVTKSFNRGEC
8 | 109 % of control | GpH7-A5/GpH7-B3 variant (H268_13S)/GpL16-k0 (antibody, human IgG1, kappa, Heterodimerized; only the B3 chain altered; also called He Ab H268_13S) heavy 1: not shown heavy 2: not shown light: DIVMTQSPLSLPVTPGEPASISCQASESLVHSNRNTYLHWYLQKPGQSPQLLIYKVSNRFSGVPDRFSGSGSGTDFTLKISRVEAEDVGVYYCSQNTHVPPTFGQGTKVEIERTVAAPSVFIFPPSDEQLKSGTASVVCLLNNFYPREAKVQWKVDNALQSGNSQESVTEQDSKDSTYSLSSTLTLSKADYEKHKVYACEVTHQGLSSPVTKSFNRGEC
9 | 105 % of control | GpH7-A5/GpH7-B3 variant (S337_07I)/GpL16-k0 (antibody, human IgG1, kappa, Heterodimerized; only the B3 chain altered; also called He Ab S337_07I) heavy 1: not shown heavy 2: not shown light: DIVMTQSPLSLPVTPGEPASISCQASESLVHSNRNTYLHWYLQKPGQSPQLLIYKVSNRFSGVPDRFSGSGSGTDFTLKISRVEAEDVGVYYCSQNTHVPPTFGQGTKVEIERTVAAPSVFIFPPSDEQLKSGTASVVCLLNNFYPREAKVQWKVDNALQSGNSQESVTEQDSKDSTYSLSSTLTLSKADYEKHKVYACEVTHQGLSSPVTKSFNRGEC
10 | 102 % of control | GpH7-A5/GpH7-B3 variant (I336_12R)/GpL16-k0 (antibody, human IgG1, kappa, Heterodimerized; only the B3 chain altered; also called He Ab I336_12R) heavy 1: not shown heavy 2: not shown light: DIVMTQSPLSLPVTPGEPASISCQASESLVHSNRNTYLHWYLQKPGQSPQLLIYKVSNRFSGVPDRFSGSGSGTDFTLKISRVEAEDVGVYYCSQNTHVPPTFGQGTKVEIERTVAAPSVFIFPPSDEQLKSGTASVVCLLNNFYPREAKVQWKVDNALQSGNSQESVTEQDSKDSTYSLSSTLTLSKADYEKHKVYACEVTHQGLSSPVTKSFNRGEC
11 | 106 % of control | GpH7-A5/GpH7-B3 variant (S337_04F)/GpL16-k0 (antibody, human IgG1, kappa, Heterodimerized; only the B3 chain altered; also called He Ab S337_04F) heavy 1: not shown heavy 2: not shown light: DIVMTQSPLSLPVTPGEPASISCQASESLVHSNRNTYLHWYLQKPGQSPQLLIYKVSNRFSGVPDRFSGSGSGTDFTLKISRVEAEDVGVYYCSQNTHVPPTFGQGTKVEIERTVAAPSVFIFPPSDEQLKSGTASVVCLLNNFYPREAKVQWKVDNALQSGNSQESVTEQDSKDSTYSLSSTLTLSKADYEKHKVYACEVTHQGLSSPVTKSFNRGEC
